The values below come from patent US20200291354A1 (Novartis, published 2020).

The target in the assay is T1, PD1 (Programmed Death 1) (human, UniProt Q15116 25-288).
T1 construct: whole, on cells
As to the kind of experiment: flow cytometry on T cells electroporated with PD1 and minibody mRNA; biotinylated goat anti-human IgG1 and streptavidin-PE. From the text:
FIG. 8 is a panel of images and graphs showing detection of PD1 minibody or PD1-PDL1 bispecific minibody bound on T cells. T cells were electroporated with mRNA (PD1, PD1 and PD1 minibody, and PD1 and PD1-PDL1 bispecific minibody) as specified. The T cells were stained with biotinylated goat anti-human IgG1 and then streptavidin-PE. Biotin anti-human IgG1 specifically detected PD1 minibody or PD1-PDL1 bispecific minibody […] when the cells expressed PD1. PD1 expressed on the T cell acted as an anchor for the secreted antibodies to bind that would otherwise not interact with the T cell.
Flow Cytometry Analysis. Tumor cells were cultured in the absence or presence of IFN-γ (R&D systems, Minneapolis, Minn.) at 20 ng/m1 for 24 hrs before the cells were harvested for staining with PDL1-PE (BioLegend). Live cells were gated on the live cell population by forward scatter/side scatter (FSC/SSC) and then PDL-1 positivity by PE expression. K562 cells and K562 PDL1/CD19 cells were stained with PDL1-PE (BioLegend, San Diego, Calif.) and CD19-PacBlue (Life Technologies, Carlsbad, Calif.). […]
FIG. 8 is a panel of images and graphs showing detection of PD1 minibody or PD1-PDL1 bispecific minibody on T cells. […] Biotin anti-human IgG1 specifically detected PD1 minibody or PD1-PDL1 bispecific minibody when the cells expressed PD1. […]

T1 sequence (Q15116 25-288): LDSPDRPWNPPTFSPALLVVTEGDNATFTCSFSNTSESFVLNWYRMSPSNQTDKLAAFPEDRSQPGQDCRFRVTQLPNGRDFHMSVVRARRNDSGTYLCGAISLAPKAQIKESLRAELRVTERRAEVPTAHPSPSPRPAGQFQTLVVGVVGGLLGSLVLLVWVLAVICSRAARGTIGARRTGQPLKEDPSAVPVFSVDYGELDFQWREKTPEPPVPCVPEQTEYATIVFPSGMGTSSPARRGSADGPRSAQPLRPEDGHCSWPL

B1: PD1 minibody (other)
chain: QVQLQESGPGVVKPSGTLSLTCAISGGSIGSGGSIRSTRWWSWVRQSPGKGLEWIGEIYHSGSTNYNPSLKSRVTISLDKSRNHFSLRLNSVTAADTAVYYCARQDYGDSGDWYFDLWGKGTMVTVSSGGGSGGGSGGGSGGGSNFMLTQPHSVSESPGKTVTISCTRSSGSIASNSVQWYQQRPGSSPTTVIYEDNQRPSGVPDRFSGSIDSSSNSASLTVSGLKTEDEADYYCQSSDSSAVVFGSGTKLTVLEPKSCDKTHTCPPCGGGSSGGGSGGQPREPQVYTLPPSRDELTKNQVSLTCLVKGFYPSDIAVEWESNGQPENNYKTTPPVLDSDGSFFLYSKLTVDKSRWQQGNVFSCSVMHEALHNHYTQKSLSLSPGK
notes: Minibody: single chain VH-linker-VL-hinge-CH3, secreted by T cells electroporated with its mRNA; Variable regions are from PD1-17 of U.S. Pat. No. 7,488,802; also called PD1 minbody
For B1, the binding result is on record as “binds”.
